Laboratory results reported in patent US20080286228A1 (published 2008).
Non-standard residues stand in square brackets, D forms with d. No end group written: not given here.

T1: C5a receptor expressed on the surface of human PMNs (human, UniProt P21730 1-350)
T1 sequence (looked up): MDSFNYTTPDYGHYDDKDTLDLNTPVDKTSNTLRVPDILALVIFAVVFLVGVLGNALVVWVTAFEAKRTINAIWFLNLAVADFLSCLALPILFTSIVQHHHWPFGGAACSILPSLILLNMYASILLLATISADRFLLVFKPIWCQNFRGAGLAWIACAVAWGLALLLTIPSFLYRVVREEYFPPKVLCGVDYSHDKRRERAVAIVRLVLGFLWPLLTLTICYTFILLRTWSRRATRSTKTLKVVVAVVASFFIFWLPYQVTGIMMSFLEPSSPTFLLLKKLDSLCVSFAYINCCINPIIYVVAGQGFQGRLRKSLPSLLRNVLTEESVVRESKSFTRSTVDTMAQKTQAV

B1: natural C5a (ligand, UniProt P01031 678-751, looked up)
chain: TLQKKIEEIAAKYKHSVVKKCCYDGACVNNDETCEQRAARISLGPRCIKAFTECCVVASQLRANISHKDMQLGR
notes: C5a is a fragment of it
B2: IPQSLDSWWTSLRVRRYSFKPMPLaR (peptide)
peptide: IPQSLDSWWTSLRVRRYSFKPMPL[dA]R
notes: synthetic peptide; also called RVRR-containing C5a-active construct
B3: YSFKPMPLa[…] (peptide)
peptide: YSFKPMPL[dA]RRRIPQSLDSWWTSL
notes: synthetic peptide
B4: C5a C-terminal decapeptide agonist analog YSFKPMPLaR (peptide)
peptide: YSFKPMPL[dA]R
notes: synthetic peptide; also called C5a agonist
B5: IPQSLDSWWTSLRRYSFKPMPLaRG (peptide)
peptide: IPQSLDSWWTSLRRYSFKPMPL[dA]RG
notes: synthetic peptide
B6: IPQSLDSWWTSLYSFKPMPLaR (peptide)
peptide: IPQSLDSWWTSLYSFKPMPL[dA]R
notes: synthetic peptide
B7: IPQSLDSWWTSLRRYSFKPMPLaR (peptide)
peptide: IPQSLDSWWTSLRRYSFKPMPL[dA]R
notes: synthetic peptide; also called double-Arg-linked C5a-active construct

What was measured:
[1] = target: T1, C5a receptor expressed on the surface …; assay: cell-based or functional assay
[2] = target: T1, C5a receptor expressed on the surface …; assay: competition with 125I-C5a on intact human PMNs
Method: Statistical analysis of the values obtained from pharmacologic assays was performed using one-way analysis of variance (ANOVA).

[3] = target: T1, C5a receptor expressed on the surface …; assay: cell-based or functional assay; remark: listed apart in the source

Row | Binder | MPO release from human PMNs, EC50 [1] | MPO release from human PMNs, pD2 [1] | IC50 [2] | pD2 (-log IC50 (M)) [2] | smooth muscle contraction of human umbilical artery, EC50 [3] | smooth muscle contraction of human umbilical artery, pD2 [3]
1 | B1 | 0.003 µM | 8.5 -log EC50 (M) | 0.0004 µM | 9.43 -log IC50 (M) | 0.002 µM | 8.77 -log EC50 (M)
2 | B2 | 2.15 µM | 5.61 -log EC50 (M) | 0.529 µM | 6.28 -log IC50 (M) | 0.18 µM | 6.67 -log EC50 (M)
3 | B3 | > 1000 µM | > 3 -log EC50 (M) | 465 µM | 3.33 -log IC50 (M) | 39.4 µM | 4.41 -log EC50 (M)
4 | B4 | – | – | – | 5.63 -log IC50 (M) | 0.01 µM | 6.99 -log EC50 (M)
5 | B5 | 2.56 µM | 5.59 -log EC50 (M) | 17 µM | 4.77 -log IC50 (M) | 6.78 µM | 5.17 -log EC50 (M)
6 | B6 | 1.58 µM | 5.8 -log EC50 (M) | 3.69 µM | 5.43 -log IC50 (M) | 0.21 µM | 6.68 -log EC50 (M)
7 | B7 | 0.54 µM | 6.27 -log EC50 (M) | 0.416 µM | 6.38 -log IC50 (M) | 0.161 µM | 6.79 -log EC50 (M)
